Experimental data published in the DeepSol protein solubility set.

Assay: soluble on expression in E. coli; label from the status in PepcDB or PDB records
In the case of “MSHTAEIPMVPGSESPLELKPLKAVDPKAVYHRRAQRLLSLAKDSPLADYFELCRRVVAIQARLAAEADFGQLLAWGKDEAIPLSHLGSEADSYWQGLLQQLLSDLLPQVGEDLARVLRLLMQQSPEQLTSWGASLRQGHMSAVPARFSLFIWAAMGVYWSHWAPMVIKRIDQRKVAQQNLCPICGSHPVASVIVDQPRAGLRYLHCSLCESEWHYIRAHCTSCGQDKGTTLWSFDDTQAQVRIESCDECHGYTKMMFVEKSPLMDVVADDLATLMLDSELNAKGFGATTVNPLLLAHETEQ”, the “soluble on expression in E. coli” value is reported as “not soluble”. In the case of “MREIVWVHSQRIAPYKTLILNEFCYYPLELDPTPFNALIFTSKNAVFSLLETLKNSPKLKMLQNIPAYALSEPTAKTLQDHHFKVAFMGEKAHGKEFVQEIFPLLEKKSVLYLRAKEIVSSLDTILLEHGIDFKQAVVYENKLKHLTLSEQNALKPKEKSILIFTAISHAKAFLHYFEFLENYTAISIGNTTALYLQEQGIPSYIAKKPSLEACLELALSLRIKEC”, the “soluble on expression in E. coli” value is reported as “not soluble”. In the case of “MSLIRGVIGYTITPFTADGTLDLDALGTSIDSLIAGGVHAIAPLGSTGEGAYLSDSEWETVVRFSQARIAGRVPSVVSVSDLTTARTVQRARLAQACGATAVMVLPISYWKLTEAEVVAHYKAVGAAIDIPIMLYNNPGTSGTDLSVELILRILGEVPNVTMVKESTGDIQRMHRLFTATDGQVAFYNGCNPLTLEALVAGATGWCTAAPNLIPALNLALWDAVQQGDLAEARALFYRQYELLEYITRRGLPTTIKAGLKMLGQDVGAPRLPLQPLDAQGSNHLKSLLEGHHHHHH”, the “soluble on expression in E. coli” value is reported as “soluble”. For “MGSDKIHHHHHHMFVPAPDATITNCRNCPLRRKPLFLPFSDSELSFMEQFKVGELVVAPGVTLLEEGQGSAHLFTVLSGLGIRSTMLENGRRQVINFLFPGDFIGLQAGLAGEMRHSVESTTTMVLCVFNRADLWDLFREEPERAYDLTWIAAVEEHFLGETIASLGQRDATERLAWALLRIHERLSAIGLAERGRVPMPWRQQDLADALGLSLVHTNKTIRRLRETGHALWEGGTLFVDRERLATLALADPDRPRRRPLI”, the “soluble on expression in E. coli” value was “not soluble”. With “MGSDKIHHHHHHMEFVFGKKVFQSEVRKASDLKPVLAFPEALKEDFDAYYMFRDSFKTDEEAEIIRNAGLRYDYTVIPPNNIGGESIKTYGHYHPEVVRGFTYPEVYQVLEGEALFILQKPSNGKIEDVIVVEGKKWDTVIIPPNYGHVTINPTESDLITANWVCRNFSSIYEPYTKRRGACYYYINGEWVRNRNYDDAPEIRFAKPKNVLDVKGDMYDLVYTIEKLEFLVKPHEHQEIFENAFEVV” the “soluble on expression in E. coli” value was “not soluble”. With “PRVPSAGAAECKGEISNVQWKNDTNIKDGVFVGSYGQGADVQFDWKVDPGAKAGDQFTLKLPNELSRLGNKDLTLTAPSGEEVAKGTWDDVAKTWTFTLTDYANSHGDISGSAFFTVQWDRSVAQSNTQYPLTFSGCKGAGTLNGKTPEEGVGGTAQATSKTGLYDSKTDSARWNIYVETADTDIYTPVVVKDIGNTQLLFRCSDVKVFDRTPYPHTKIRDTPIDPNRWKCEEKDGGIIVSMVPDEHGRYLTAGQSLTIGFETPINDDTSRFITNKAIVEISPNKIENVEYSVDRGDAGGVGQGFQGKIKIQKEVVGETAPVQGNKFDFEYKCGETTQNISVAAGQTSDIFTQRSSSTCSITEKNVAEGVTVDFEVIDEETGKPAYVVPIDNGVTVKFNKNSSTTLNVKVTNTYPNKPEAKKGKFVIKKTVNGLDAGQKDKAFKFNYTCKAPDGDAYTEPQLAEVTAGRTWQSGNYPEGTICTIEEDLESAKVPGYSLISAQPKGDVTIKAEGTEGSPVEFAATNSYTKDLGSFSVQKKIEASAEAMPLLKDQEFGFKYTCGADKGEFKLKNGETKKVERIATGTKCTVEESDAKVPNGFMWTGKIEGTDLDPNDFTIVKDKTLAFTATNTYKQQYGGFTLSKNVTGDATNLEELQKRSYTFNYTCTAPTGTVLKDKVEITEETPKAIGNIPAASTCKVTEVEAPAKDTDWTVDLSVNGTWVGETAEFKVPAEGEPSISILAKNNYRQHKGSFTIEKIVDASEGIVTPKEFTFTWQCGEDKGAETVRVTNGKGRVEIDRAFPVGTKCSVKELEAEAEDARLITSWENQEFTIDKDKQHVIVSATNTYRYAESKVKIVKKLEGPAKDKAKDKTFTFDYSCVVNNEAIEGSVNITGEGATEIPESFPAGTKCTITERDASISGTTWTHRIAEDGQITIQSPAKVYQVGVTNAYSKPGFP” the “soluble on expression in E. coli” value was “not soluble”. With “SSALIQTPSSLLVQTNHTAKMSCEVKSISKLTSIYWLRERQDPKDKYFEFLASWSSSKGVLYGESVDKKRNIILESSDSRRPFLSIMNVKPEDSDFYFCATVGSPKMVFGTGTKLTVVDVLPTTAPTKKTTLKMKKKKQCPFPHPETQKG” the “soluble on expression in E. coli” value was “soluble”. With “RGEPYAGQVAVGATVINRTKNPKFPSTIAGVIYQPGAFTAIVDGQIHATMEPNSIRAARDALNGWDPSGGAIYYFNPATATSGWIWSRPLIIIIGKHRFCR” the “soluble on expression in E. coli” value was “not soluble”. With “MAYVPTLIANNVLNRAFAEKYRISPMKLQKILYFAAAEYQKNTGKSLFSERFETWQYGPVLRSVYSEFRPFSRDFITRFAKDAENQSHMINESADPALQRVLDTVWSATKGHSAVDLSRITHMENSAWDKSFQNEQPFLSSDHIAADDTYRRELGLTTA” the “soluble on expression in E. coli” value was “not soluble”. With “NLYFQSARFALTVVRHGETRFNKEKIIQGQGVDEPLSETGFKQAAAAGIFLNNVKFTHAFSSDLMRTKQTMHGILERSKFCKDMTVKYDSRLRERKYGVVEGKALSELRAMAKAAREECPVFTPPGGETLDQVKMRGIDFFEFLCQLILKEADQKEQFSQGSPSNCLETSLAEIFPLGKNHSSKVNSDSGIPGLAASVLVVSHGAYMRSLFDYFLTDLKCSLPATLSRSELMSVTPNTGMSLFIINFEEGREVKPTVQCICMNLQDHLNGLTETR” the “soluble on expression in E. coli” value was “soluble”. With “GPGSMSLPCPSSSSPLLGSITSGVRSPSRGPVQQQQLLHQRHASMRLRLHKDGSICACPEKSGGGVSQACAPPLPATSAFARGKEEPSAKRHHAEPSSCPGPGGDSSSVDRSAAATVVTIAAPLLSIPNPSSRAAPSPFRFLCTSVGGCPVVGAKDARVHLPDSSARCDVSGSVAPRDLSTTSAHSKAHSTAAVGRASPSSGVVSPPLSATYPSLVSASHGARVVCSHPQSASASTVPGATIDTSAPSPVPSPPHRIHQHELRPADFRREEVLGEGSYSIVTLATHRASGLSFALKEIDRSRLRWRPLEAQLRWEINLQRTLRHPHIVRLYSYFITPDCISLVLEYCSGGTLLSRLRAAPQYRLSERQASRYTRHVAKALVHLHGLGVAHRDLKLENVLIDADGIAKLADFGWSRSVVHPLPSSKSAAAAQTAGDRNDAPCSSAEHNTSNEDPTEGVAEGRRTVCGTLDYLSPEMVSGQAHSAKTDVWSLGVMLAEMLTGTPPFYTESTQETLYAIQRLPPNLTGLHPKGHGPGLTGSGASTSASVCLILDEPVALSAGALSLIHAMLQKDPSARPTMPEVLGHPWLQKKKLARKS” the “soluble on expression in E. coli” value was “not soluble”. With “MKNNADYIEMKVPAQPEYVGIIRLTLSGVASRMGYTYDEIEDLKIAVSEACTNAVQHAYKEDKNGEVSIRFGVFEDRLEVIVADEGDSFDFDQKQQDLGPYTPSHTVDQLSEGGLGLYLMETLMDEVRVQNHSGVTVAMTKYLNGERVDHDTTIKNYETN” the “soluble on expression in E. coli” value was “soluble”. In the case of “MSLKHPDPAQKVEGTTATTPTKVAAFFDLDKTIIAMSSTYAYGREFMNSGLISPVEALQLSLAQATYMFAGHTSEQMDNTRDQLTAMIRGWEVQQVRSIAEETMHSVVTPTIYAEARELIEHHQELGHDVIIISASVKELVEPIARELGVHKTVTTVLEAHDGMYTGEVLFYCKGDAKAQSILDLAEANNYDLSLSFAYSDSFTDLPMLEAVGNPAAVNPDRALKKIALEQGWKILSFKNPEPLFQEGHHHHHH”, the “soluble on expression in E. coli” value is reported as “soluble”. With “MSLYYINLKQERILKFIEKFGVARIEHMKRILNIKDIDNQFKILIRQRKVKLVFNDICVLDGKKELNIKMIKALDLYSYLHLNNGGIPIEWCMPQDFPFTIAFFRNSKVFDVAIINEGEETIYSSAINRGVSERVIVVLSEENQKENIKINKQIKCCTIEDGVLNFEGHHHHHH” the “soluble on expression in E. coli” value was “not soluble”. For “MSLTITVNGVEISEDMIASQLDHYADTPSPRDTAIQQLILHTLLIQQAKSEGLDVADEQQAIQTLLDSKLQVPAIDEASCREFYDRYPERFSAGESAVASHILLPKGEGLEASLIKAKAEGILEEAQANPSRFAALAQEHSTCPSGKQGGSLGQFGRGQMVPEFEQAVFSTEAGQITPHLVETQFGYHIIQVEQRAEGGKIGFDEVKERLQHYLADLAVNQAMHEYLNMLVSAAQISGYQMTAEGHHHHHH”, the “soluble on expression in E. coli” value was “soluble”.
